What was measured:
[1] = molecular target: Hcp from Acinetobacter baumannii AB0057, C-terminal His-tagged (Acinetobacter baumannii strain AB0057); assay: crystal structure; X-ray, 1.55 Å, space group P6; crystals from 2.0 M ammonium sulfate, 0.1 M Hepes pH 7.5, 4°C; hexamer made by the 6-fold crystallographic symmetry; interfaces analysed with PISA
[2] = molecular target: Hcp from Acinetobacter baumannii AB0057, tag-free (Acinetobacter baumannii strain AB0057); assay: AUC; sedimentation equilibrium, 20°C, Hcp at 1.0 and 2.5 mg/ml, 20 mM Tris-HCl pH 7.5, 200 mM NaCl, 0.2 mM DTT, 2% glycerol
[3] = molecular target: Hcp from Acinetobacter baumannii AB0057, tag-free (Acinetobacter baumannii strain AB0057); assay: negative-staining electron microscopy; Hcp at 0.02 mg/ml in 20 mM Tris-HCl pH 7.5, 200 mM NaCl, 2 mM DTT, stained with 1% uranyl formate; reference-free 2D classification

| Substance | stoichiometry N [1] | stoichiometry N [2] | stoichiometry N [3] |
| --- | --- | --- | --- |
| Hcp from Acinetobacter baumannii AB0057, C-terminal His-tagged (natural protein) | 6 | – | – |
| Hcp from Acinetobacter baumannii AB0057, tag-free (natural protein) | – | 6 | 6 |

— publication PMC4469607
